{
  "source": "patent US20250312444A1",
  "about": "(BEIJING TUO JIE BIOPHARMACEUTICAL, published 2025)",
  "key": {"[1]": {"target": "T1, human RXFP1 receptor (human, UniProt Q9HBX9 1-757)", "T1 sequence (looked up)": "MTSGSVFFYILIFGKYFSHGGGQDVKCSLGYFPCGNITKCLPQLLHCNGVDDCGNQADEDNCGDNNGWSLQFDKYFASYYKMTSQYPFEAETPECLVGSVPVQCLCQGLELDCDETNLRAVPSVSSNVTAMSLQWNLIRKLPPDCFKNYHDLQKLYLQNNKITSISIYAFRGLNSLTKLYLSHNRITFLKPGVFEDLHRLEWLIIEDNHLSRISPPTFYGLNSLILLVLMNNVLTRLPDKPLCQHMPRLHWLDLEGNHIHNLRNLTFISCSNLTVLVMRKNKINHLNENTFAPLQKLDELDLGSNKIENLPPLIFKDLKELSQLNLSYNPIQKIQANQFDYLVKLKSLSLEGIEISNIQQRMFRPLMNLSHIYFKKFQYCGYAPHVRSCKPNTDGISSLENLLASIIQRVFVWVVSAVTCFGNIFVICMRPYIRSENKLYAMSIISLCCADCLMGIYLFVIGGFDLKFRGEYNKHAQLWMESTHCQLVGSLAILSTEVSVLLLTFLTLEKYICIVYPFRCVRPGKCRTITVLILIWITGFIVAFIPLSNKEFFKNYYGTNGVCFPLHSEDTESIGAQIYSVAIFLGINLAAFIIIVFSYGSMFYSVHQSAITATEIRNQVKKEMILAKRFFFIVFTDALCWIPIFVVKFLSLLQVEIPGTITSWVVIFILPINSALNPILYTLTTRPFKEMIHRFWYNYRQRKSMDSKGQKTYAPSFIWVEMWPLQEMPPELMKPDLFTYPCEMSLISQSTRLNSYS", "assay": "cell-based or functional assay"}, "[2]": {"target": "human serum albumin (HSA) (human)", "assay": "SPR Biacore T200, fusion protein captured by anti-VHH antibody, albumin as analyte", "procedure": "(§1) Coupling of an anti-VHH antibody (MonoRab™ Rabbit Anti-Camelid VHH Cocktail, Genescript, Cat No. A02014) to an S series CM5 sensor chip (GE, Cat No. 29-1049-88) was performed using an amino coupling kit (GE, Cat No. BR-1000-50). The antibody was diluted to 10 μg/mL with 10 mM sodium acetate (pH 4.5) (GE, Cat No. BR-1003-50). After the CM5 chip was activated with EDC/NHS, the diluted anti-VHH antibody was flowed over the chip to reach a surface response value of about 5000 RU, and then the chip was blocked with ethanolamine for later use.\n(§2) The albumin from each species was serially diluted in a gradient with 1XHBS-EP (10 mM HEPES, pH 7.4, 150 mM NaCl, 3 mM EDTA, 0.05% Surfactant P20). The test fusion protein molecule was captured using the anti-VHH antibody-coupled chip, with a response value of about 30 RU. Then, different concentrations of serum albumin were flowed over the surface of the chip for 3 min at a flow rate of 50 μL/min, with a dissociation time of 1-10 min (the dissociation time varied depending on the species of albumin). After the end of each cycle, the chip was regenerated using 10 mM glycine-hydrochloric acid (pH 1.5) (GE, Cat No. BR-1003-54). The reaction signals were detected in real-time using Biacore T200 (GE) to obtain the association and dissociation curves, and the data obtained were fitted with a Langmuir 1:1 binding model using the BIAevaluation version 4.1 software at appropriate concentration points to obtain the affinity values."}, "[3]": {"target": "T2, rat serum albumin (rat)", "T2 chain": "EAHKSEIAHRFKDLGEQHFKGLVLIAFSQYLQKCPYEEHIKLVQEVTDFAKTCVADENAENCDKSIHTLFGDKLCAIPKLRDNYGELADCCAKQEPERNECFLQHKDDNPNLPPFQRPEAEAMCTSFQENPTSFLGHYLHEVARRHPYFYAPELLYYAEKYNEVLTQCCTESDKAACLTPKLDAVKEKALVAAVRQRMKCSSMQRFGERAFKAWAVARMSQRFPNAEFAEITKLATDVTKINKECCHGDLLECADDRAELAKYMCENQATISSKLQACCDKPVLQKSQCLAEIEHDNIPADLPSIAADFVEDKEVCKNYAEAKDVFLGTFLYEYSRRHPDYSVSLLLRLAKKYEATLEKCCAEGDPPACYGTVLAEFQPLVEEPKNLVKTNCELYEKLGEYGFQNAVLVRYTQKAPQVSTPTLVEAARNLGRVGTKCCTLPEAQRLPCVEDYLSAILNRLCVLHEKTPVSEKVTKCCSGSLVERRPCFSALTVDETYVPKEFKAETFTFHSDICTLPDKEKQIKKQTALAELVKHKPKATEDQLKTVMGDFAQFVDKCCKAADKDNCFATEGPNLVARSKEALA", "assay": "SPR Biacore T200, fusion protein captured by anti-VHH antibody, albumin as analyte", "procedure": "as §1, §2"}, "[4]": {"target": "T1, human RXFP1 receptor", "assay": "cell-based or functional assay", "remark": "listed apart in the source"}, "[5]": {"target": "human serum albumin (HSA) (human)", "assay": "SPR Biacore T200, albumin amine-coupled, fusion protein as analyte", "procedure": "(§3) Coupling of serum albumins from different species to an S series CM5 sensor chip (GE, Cat. 29-1049-88) was performed using an amino coupling kit (GE, Cat No. BR-1000-50). The albumin from each species was diluted to 2 μg/mL. After the CM5 chip was activated with EDC/NHS, the diluted albumin was flowed over the chip to reach a surface response value of about 200 (180 to 230) RU, and then the chip was blocked with ethanolamine. The blank control channel also needed to be activated with EDC/NHS and blocked with ethanolamine. […] The samples of 0051 and 0054 at different concentrations were separately flowed through the albumin-coupled and blank channels for 3 min at a flow rate of 50 μL/min, with a dissociation time of 4 min. After the end of each cycle, the chip was regenerated using 10 mM glycine-hydrochloric acid (pH 1.5) (GE, Cat. #BR-1003-54). The reaction signals were detected in real-time using Biacore T200 (GE) to obtain the association and dissociation curves, and the data obtained were fitted with a Langmuir 1:1 binding model using the BIAevaluation version 4.1 software at appropriate concentration points to obtain the affinity values."}, "[6]": {"target": "mouse serum albumin (mSA) (mouse)", "assay": "SPR Biacore T200, albumin amine-coupled, fusion protein as analyte", "procedure": "as §3"}, "[7]": {"target": "T2, rat serum albumin", "assay": "SPR Biacore T200, albumin amine-coupled, fusion protein as analyte", "procedure": "as §3"}},
  "data": [
    {"binder": "0051 (other, Single-chain fusion: anti-HSA VHH, linker, relaxin-2 B chain, linker, relaxin-2 A chain; also called fusion protein 0051; molecule 0051) EVQLLESGGGLVQPGGSLRLSCAASGFTFLTSCMGWFRQAPGKEREGVSSIYTVGGSTFYTNSVKGRFTISRDNSKNTLYLQMNSLRAEDTAVYYCAAGSPARCRLRDPTTFDYWGQGTLVTVSSGGGGQGGGGQGGGGQGGGGQGGGGQSWMEEVIKLCGRELVRAQIAICGMSTWSGGGSGGSGGGQLYSALANKCCHVGCTKRSLARFC", "values": [
      {"measurement": "EC50 (nM), cAMP production in CHO-K1 cells with receptor overexpression", "setting": "[1]", "value": 28.3, "unit": "nM"},
      {"measurement": "Kd", "setting": "[2]", "value": 20.2, "unit": "nM"},
      {"measurement": "koff", "setting": "[2]", "value": 0.0011, "unit": "s⁻¹"},
      {"measurement": "kon", "setting": "[2]", "value": 54500, "unit": "M⁻¹ s⁻¹"},
      {"measurement": "Kd", "setting": "[3]", "value": 156, "unit": "nM"},
      {"measurement": "koff", "setting": "[3]", "value": 0.00581, "unit": "s⁻¹"},
      {"measurement": "kon", "setting": "[3]", "value": 37200, "unit": "M⁻¹ s⁻¹"},
      {"measurement": "EC50 (nM), cAMP production in THP1 cells, 1% HSA", "setting": "[4]", "value": 28.4, "unit": "nM"},
      {"measurement": "EC50 (nM), cAMP production in THP1 cells, without HSA", "setting": "[4]", "value": 3.83, "unit": "nM"},
      {"measurement": "Kd", "setting": "[5]", "value": 0.0422, "unit": "nM"},
      {"measurement": "koff", "setting": "[5]", "value": 0.000207, "unit": "s⁻¹"},
      {"measurement": "kon", "setting": "[5]", "value": "4.91e+06", "unit": "M⁻¹ s⁻¹"},
      {"measurement": "Kd", "setting": "[6]", "value": 37.9, "unit": "nM"},
      {"measurement": "koff", "setting": "[6]", "value": 0.0471, "unit": "s⁻¹"},
      {"measurement": "kon", "setting": "[6]", "value": "1.24e+06", "unit": "M⁻¹ s⁻¹"},
      {"measurement": "Kd", "setting": "[7]", "value": 1.95, "unit": "nM"},
      {"measurement": "koff", "setting": "[7]", "value": 0.00439, "unit": "s⁻¹"},
      {"measurement": "kon", "setting": "[7]", "value": "2.25e+06", "unit": "M⁻¹ s⁻¹"}
    ]}
  ]
}
